Source: doi:10.1101/2021.08.23.457303 (bioRxiv, 2021)

Key:
[1] = molecular target: T1, His-tagged human Bin1 isoform 8, wild type, full length (human, UniProt O00499-8 1-454); assay: pull-down
T1 sequence: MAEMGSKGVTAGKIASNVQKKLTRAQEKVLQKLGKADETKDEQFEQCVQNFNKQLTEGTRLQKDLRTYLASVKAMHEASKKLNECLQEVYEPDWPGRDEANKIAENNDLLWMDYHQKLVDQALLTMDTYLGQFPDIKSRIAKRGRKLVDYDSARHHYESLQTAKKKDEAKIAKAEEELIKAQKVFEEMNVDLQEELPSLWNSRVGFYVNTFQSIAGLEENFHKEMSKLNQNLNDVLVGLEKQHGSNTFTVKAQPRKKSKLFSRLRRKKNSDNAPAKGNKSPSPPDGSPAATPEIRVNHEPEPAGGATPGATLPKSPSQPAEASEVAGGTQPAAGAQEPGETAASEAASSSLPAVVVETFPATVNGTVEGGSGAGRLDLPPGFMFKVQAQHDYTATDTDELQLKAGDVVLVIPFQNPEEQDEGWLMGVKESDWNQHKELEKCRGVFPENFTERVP

[2] = molecular target: T2, His-tagged human Bin1 isoform 8 K436X (CNM-associated, truncated SH3 domain) (human, UniProt O00499-8 1-435); assay: pull-down
T2 sequence: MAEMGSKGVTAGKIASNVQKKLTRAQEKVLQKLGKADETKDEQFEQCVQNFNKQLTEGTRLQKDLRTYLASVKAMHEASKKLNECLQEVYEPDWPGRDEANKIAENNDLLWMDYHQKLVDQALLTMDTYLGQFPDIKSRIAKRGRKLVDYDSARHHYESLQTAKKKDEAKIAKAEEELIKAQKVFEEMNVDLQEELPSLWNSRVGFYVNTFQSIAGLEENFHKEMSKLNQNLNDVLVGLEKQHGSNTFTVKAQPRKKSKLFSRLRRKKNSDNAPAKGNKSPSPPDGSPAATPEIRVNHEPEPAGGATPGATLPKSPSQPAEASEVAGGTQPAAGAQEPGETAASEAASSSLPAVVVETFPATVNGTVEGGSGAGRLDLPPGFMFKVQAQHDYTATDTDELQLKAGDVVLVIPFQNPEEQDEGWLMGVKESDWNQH

B1: GST-tagged PRD domain of Dyn2 (domain or fragment)
chain: PVPPPVDDTWLQSASSHSPTPQRRPVSSIHPPGRPPAVRGPTPGPPLIPVPVGAAASFSAPPIPSRPGPQSVFANSDLFPAPPQIPSRPVRIPPGIPPGVPSRRPPAAPSRPTIIRPAEPSLLD
[1]
  Kd: 180 nM
[2]
  Kd: 267 nM
